In this assay the target is Drosophila melanogaster Dicer-2 (dmDcr-2), OSF tag removed (Drosophila melanogaster, UniProt A1ZAW0 1-1722). As to the kind of experiment: cross-linking.
Chain of Drosophila melanogaster Dicer-2 (dmDcr-2), OSF tag removed (A1ZAW0 whole entry): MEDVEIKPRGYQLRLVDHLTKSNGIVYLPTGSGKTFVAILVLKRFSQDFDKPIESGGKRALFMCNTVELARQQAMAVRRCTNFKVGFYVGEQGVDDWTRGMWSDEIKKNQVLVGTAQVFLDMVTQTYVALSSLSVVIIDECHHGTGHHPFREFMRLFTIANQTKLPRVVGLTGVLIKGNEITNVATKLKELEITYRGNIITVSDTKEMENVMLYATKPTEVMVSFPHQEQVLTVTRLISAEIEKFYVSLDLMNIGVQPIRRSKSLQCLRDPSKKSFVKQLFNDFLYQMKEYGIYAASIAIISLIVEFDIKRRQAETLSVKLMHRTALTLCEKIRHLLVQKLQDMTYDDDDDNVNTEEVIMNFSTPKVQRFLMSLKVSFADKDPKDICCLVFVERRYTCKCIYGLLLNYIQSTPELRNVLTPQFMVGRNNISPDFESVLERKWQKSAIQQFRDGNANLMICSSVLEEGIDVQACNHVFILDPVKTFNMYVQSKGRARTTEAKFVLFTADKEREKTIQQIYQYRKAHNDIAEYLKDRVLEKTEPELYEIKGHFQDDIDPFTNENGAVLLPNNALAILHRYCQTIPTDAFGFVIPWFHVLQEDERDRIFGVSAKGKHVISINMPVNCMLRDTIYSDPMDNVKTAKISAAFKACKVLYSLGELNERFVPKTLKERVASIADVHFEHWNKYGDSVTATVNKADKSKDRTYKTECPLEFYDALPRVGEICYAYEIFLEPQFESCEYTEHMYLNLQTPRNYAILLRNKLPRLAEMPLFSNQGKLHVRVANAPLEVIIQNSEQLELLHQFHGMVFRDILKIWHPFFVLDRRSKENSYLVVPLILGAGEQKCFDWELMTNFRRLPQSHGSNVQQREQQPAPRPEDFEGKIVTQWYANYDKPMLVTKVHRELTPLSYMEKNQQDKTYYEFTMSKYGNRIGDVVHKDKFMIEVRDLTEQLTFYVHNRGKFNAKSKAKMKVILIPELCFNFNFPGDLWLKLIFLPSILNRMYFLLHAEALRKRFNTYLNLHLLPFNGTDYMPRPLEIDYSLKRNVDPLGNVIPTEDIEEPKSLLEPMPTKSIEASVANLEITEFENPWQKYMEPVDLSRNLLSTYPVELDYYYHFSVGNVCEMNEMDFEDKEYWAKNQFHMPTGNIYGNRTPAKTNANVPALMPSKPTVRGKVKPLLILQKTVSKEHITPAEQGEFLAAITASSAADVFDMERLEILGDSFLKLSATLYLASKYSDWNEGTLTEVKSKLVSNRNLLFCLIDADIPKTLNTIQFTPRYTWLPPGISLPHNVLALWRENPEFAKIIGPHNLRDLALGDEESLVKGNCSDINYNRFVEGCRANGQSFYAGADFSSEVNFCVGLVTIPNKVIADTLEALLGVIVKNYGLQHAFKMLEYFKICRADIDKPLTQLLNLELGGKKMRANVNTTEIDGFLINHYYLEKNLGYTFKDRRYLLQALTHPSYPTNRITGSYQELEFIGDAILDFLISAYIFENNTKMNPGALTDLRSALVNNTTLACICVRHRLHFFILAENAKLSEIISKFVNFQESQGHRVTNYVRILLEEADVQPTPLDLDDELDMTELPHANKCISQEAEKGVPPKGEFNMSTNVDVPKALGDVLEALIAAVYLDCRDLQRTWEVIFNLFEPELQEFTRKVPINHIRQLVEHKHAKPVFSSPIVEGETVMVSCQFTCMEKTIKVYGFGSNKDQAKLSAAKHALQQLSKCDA

B1: Loquacious-PD (Loqs-PD), OSF tag removed (natural protein, Drosophila melanogaster, UniProt Q9VJY9-4 1-359, looked up)
chain: MDQENFHGSSLPQQLQNLHIQPQQASPNPVQTGFAPRRHYNNLVGLGNGNAVSGSPVKGAPLGQRHVKLKKEKISAQVAQLSQPGQLQLSDVGDPALAGGSGLQGGVGLMGVILPSDEALKFVSETDANGLAMKTPVSILQELLSRRGITPGYELVQIEGAIHEPTFRFRVSFKDKDTPFTAMGAGRSKKEAKHAAARALIDKLIGAQLPESPSSSAGPSVTGLTVAGSGGDGNANATGGGDASDKTVGNPIGWLQEMCMQRRWPPPSYETETEVGLPHERLFTIACSILNYREMGKGKSKKIAKRLAAHRMWMRLQETPIDSGKISDSICGELEGEVSIIQDIDRYEQVSKDFEFIKI
modifications: mono-phosphorylated (intact-mass ESI/MS shows a phospho and a dephosphorylated species); putative site assigned to the motif 213-SPSSS-217
On to B1, for which the “stoichiometry N” value worked out at 1.
